Results reported in patent publication US20200317768A1 (published 2020).
Positions count from the first letter of the chain named.

T1: human FcγRIIaR extracellular domain with C-terminal His-tag (human, UniProt P12318 34-217)
T1 construct: Expressed in FreeStyle 293 cells and purified; also called human FcγRIIa (type R); FcgRIIaR; not shown: C-terminal His-tag
T1 chain: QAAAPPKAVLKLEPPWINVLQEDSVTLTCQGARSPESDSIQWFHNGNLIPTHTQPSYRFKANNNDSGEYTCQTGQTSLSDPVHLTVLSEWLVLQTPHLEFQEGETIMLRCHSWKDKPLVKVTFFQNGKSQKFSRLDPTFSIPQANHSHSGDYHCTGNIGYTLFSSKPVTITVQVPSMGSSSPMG

T2: human FcγRIIb extracellular domain with C-terminal His-tag (human, UniProt P31994 43-217)
T2 construct: Expressed in FreeStyle 293 cells and purified; also called humanFcgRIIb; not shown: C-terminal His-tag
T2 sequence: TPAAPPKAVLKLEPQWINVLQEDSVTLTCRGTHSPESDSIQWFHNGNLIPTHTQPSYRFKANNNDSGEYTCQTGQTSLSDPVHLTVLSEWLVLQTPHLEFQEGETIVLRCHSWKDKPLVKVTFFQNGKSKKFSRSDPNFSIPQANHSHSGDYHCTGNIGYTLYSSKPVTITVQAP

T3: cynomolgus monkey FcγRIIa3 extracellular domain with C-terminal His-tag (cynomolgus monkey)
T3 construct: Expressed in FreeStyle 293 cells and purified; also called cyno FcγRIIa3; cynoFcgRIIa3; not shown: C-terminal His-tag
T3 chain: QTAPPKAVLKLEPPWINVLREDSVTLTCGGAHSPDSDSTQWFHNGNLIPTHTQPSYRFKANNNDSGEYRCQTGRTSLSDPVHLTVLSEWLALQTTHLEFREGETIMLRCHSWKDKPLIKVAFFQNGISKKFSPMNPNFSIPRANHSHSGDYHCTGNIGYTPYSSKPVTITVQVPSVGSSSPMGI

T4: cynomolgus monkey FcγRIIa2 extracellular domain with C-terminal His-tag (cynomolgus monkey)
T4 construct: Expressed in FreeStyle 293 cells and purified; also called cyno FcγRIIa2; cynoFcgRIIa2; not shown: C-terminal His-tag
T4 chain: T3 chain with I127K, K130N, P133H, R142Q

T5: cynomolgus monkey FcγRIIb extracellular domain with C-terminal His-tag (cynomolgus monkey)
T5 construct: Expressed in FreeStyle 293 cells and purified; also called cyno FcγRIIb; cynoFcγRIIb; not shown: C-terminal His-tag
T5 chain: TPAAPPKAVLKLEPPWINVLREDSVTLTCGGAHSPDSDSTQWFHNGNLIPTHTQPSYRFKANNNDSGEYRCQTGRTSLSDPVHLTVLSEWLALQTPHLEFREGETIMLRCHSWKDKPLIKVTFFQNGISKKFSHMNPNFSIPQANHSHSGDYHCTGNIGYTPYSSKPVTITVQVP

T6: cynomolgus monkey FcγRIIIaS extracellular domain with C-terminal His-tag (cynomolgus monkey, UniProt Q8SPW2 21-206 at identity 1.00))
T6 construct: Expressed in FreeStyle 293 cells and purified; also called cyno FcγRIIIaS; cynoFcγRIIIaS; not shown: C-terminal His-tag
T6 chain: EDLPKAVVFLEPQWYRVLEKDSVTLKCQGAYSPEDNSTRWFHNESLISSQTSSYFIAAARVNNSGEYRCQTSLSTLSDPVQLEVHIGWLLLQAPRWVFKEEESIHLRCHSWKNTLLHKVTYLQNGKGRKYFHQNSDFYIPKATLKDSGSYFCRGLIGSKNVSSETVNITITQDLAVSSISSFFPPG

B1: MS_M103205H795-SG1/M103202L889-SK1 (antibody, human IgG1, kappa)
heavy: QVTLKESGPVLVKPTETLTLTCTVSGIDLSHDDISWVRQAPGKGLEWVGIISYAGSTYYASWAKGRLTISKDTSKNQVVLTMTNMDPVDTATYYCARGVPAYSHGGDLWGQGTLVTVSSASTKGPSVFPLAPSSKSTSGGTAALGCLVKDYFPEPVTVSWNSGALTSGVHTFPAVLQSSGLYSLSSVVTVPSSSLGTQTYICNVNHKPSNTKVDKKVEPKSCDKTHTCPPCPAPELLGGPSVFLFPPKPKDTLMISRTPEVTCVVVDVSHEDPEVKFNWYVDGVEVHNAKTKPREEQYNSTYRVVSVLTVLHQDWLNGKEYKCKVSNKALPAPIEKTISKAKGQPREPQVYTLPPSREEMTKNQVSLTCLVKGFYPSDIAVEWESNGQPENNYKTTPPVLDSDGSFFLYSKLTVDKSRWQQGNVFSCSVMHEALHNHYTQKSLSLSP
light: DIVMTQSPATLSLSPGERATLSCTSSQSVYHANWLSWFQQKPGQPPKLLIYWASTLAYGVPSRFSGSGSGTDFTLTISSLQPEDAATYYCAGGYGGGRYAFGQGTKVEIKRTVAAPSVFIFPPSDEQLKSGTASVVCLLNNFYPREAKVQWKVDNALQSGNSQESVTEQDSKDSTYSLSSTLTLSKADYEKHKVYACEVTHQGLSSPVTKSFNRGEC
notes: Anti-latent myostatin IgG; also called MS1032LO06-SG1
B2: M103205H795-MY168 / M103202L889-SK1 (antibody, human IgG1, kappa)
heavy: QVTLKESGPVLVKPTETLTLTCTVSGIDLSHDDISWVRQAPGKGLEWVGIISYAGSTYYASWAKGRLTISKDTSKNQVVLTMTNMDPVDTATYYCARGVPAYSHGGDLWGQGTLVTVSSASTKGPSVFPLAPSSKSTSGGTAALGCLVKDYFPEPVTVSWNSGALTSGVHTFPAVLQSSGLYSLSSVVTVPSSSLGTQTYICNVNHKPSNTKVDKKVEPKSCDKTHTCPPCPAPELLNGPSVFLFPPKPKDTLMISRTPEVTCVVVDVSEEDPEVKFNWYVDGVEVHNAKTKPREEQYNSTYRVVSVLTVLHQDWLNGKEYKCKVSNKALPAPIEKTISKAKGQPREPQVYTLPPSREEMTKNQVSLTCLVKGFYPSDIAVEWESNGQPENNYKTTPAVLDSDGSFFLYSKLTVDKSRWQQGNVFSCSVMHEALHNHYTQKSLSLSP
light: B1 light
notes: Position 396 variant derived from MY052, expressed with M103202L889-SK1 as light chain
B3: M103205H795-MY170 / M103202L889-SK1 (antibody, human IgG1, kappa)
heavy: B2 heavy with A398E
light: B1 light
notes: as for B2
B4: M103205H795-MY171 / M103202L889-SK1 (antibody, human IgG1, kappa)
heavy: B2 heavy with A398F
light: B1 light
notes: as for B2
B5: M103205H795-MY169 / M103202L889-SK1 (antibody, human IgG1, kappa)
heavy: B2 heavy with A398D
light: B1 light
notes: as for B2
B6: M103205H795-MY052 / M103202L889-SK1 (antibody, human IgG1, kappa)
heavy: B2 heavy with A398M
light: B1 light
notes: Fc variant of M103205H795-SG1, expressed with M103202L889-SK1 as light chain; parent of the position 396 variants

Biological target: T1, human FcγRIIaR extracellular domain …
Assay: SPR (Biacore); KD of SG1 divided by KD of the variant for this FcgR;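 further: relative to parent M103205H795-SG1 carrying the SG1 human heavy chain constant region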
Description: (§1) The kinetic analysis of interactions between these antibodies and FcγR was carried out using BIACORE® T200 or BIACORE® 4000 (GE Healthcare). HBS-EP+ (GE Healthcare) was used as the running buffer, and the measurement temperature was set to 25° C. A chip produced by immobilizing Protein A. Protein A/G or mouse anti-human IgG kappa light chain (BD Biosciences) onto a Series S Sensor Chip CM4 or CM5 (GE Healthcare) by the amine-coupling method was used. […] After the measurement, the antibody captured on the chip was washed off by allowing reaction with 10 mM glycine-HCl, pH1.5 and 25 mM NaOH so that the chip was regenerated and used repeatedly. The sensorgrams obtained as measurement results were analyzed by the 1:1 Langmuir binding model using the BIACORE® Evaluation Software to calculate the binding rate constant ka (L/mol/s) and dissociation rate constant kd (l/s), and the dissociation constant KD (mol/L) was calculated from these values. […] Regarding such interactions, KD values were calculated using the following 1:1 binding model described in BIACORE® T100 Software Handbook BR1006-48 Edition AE.
(§2) The resultant variants were expressed using M103202L889-SK1 as light chain and their affinity to human and cynoFcγRs were evaluated (Table 20).

KD fold (SG1 = 1) [fold]	Binder
1	B1
0.4	B2
0.4	B3
0.5	B4
0.4	B5
0.8	B6

Biological target: T2, human FcγRIIb extracellular domain with …
Assay: as above
Description: as §1, §2

KD fold (SG1 = 1) [fold]	Binder
1	B1
2.7	B2
2.9	B3
3.8	B4
3.5	B5
6.4	B6

Biological target: T3, cynomolgus monkey FcγRIIa3 …
Assay: as above
Description: as §1, §2

KD fold (SG1 = 1) [fold]	Binder
1	B1
1.7	B2
1.4	B3
1.8	B4
1.7	B5
4.4	B6

Biological target: T4, cynomolgus monkey FcγRIIa2 …
Assay: as above
Description: as §1, §2

KD fold (SG1 = 1) [fold]	Binder
1	B1
2	B2
2.1	B3
2.2	B4
2.2	B5
3.4	B6

Biological target: T5, cynomolgus monkey FcγRIIb extracellular …
Assay: as above
Description: as §1, §2

KD fold (SG1 = 1) [fold]	Binder
1	B1
1.5	B2
1.5	B3
1.8	B4
1.8	B5
3.9	B6

Biological target: T6, cynomolgus monkey FcγRIIIaS …
Assay: as above
Description: as §1, §2

KD fold (SG1 = 1) [fold]	Binder
1	B1
0.08	B2
0.12	B3
0.11	B4
0.1	B5
0.24	B6
